Data: patent publication KR20160003317A (dated 2016)

B1: SC06-402 (scFv)
scFv: QVQLVQSGAEVKKPGESLKISCKGSGYSFTSYWIGWVRQMPGKGLEWMGIIYPGDSDTRYSPSFQGQVTISADKSISTAYLQWSSLKASDTAMYYCARWGGVCSSTSCPNRDAFDIWGQGTMVTVSSGTGGSGGTGSGTGGSTQSALTQPRSVSGSPGQSVTISCTGTSSDVGGYNYVSWYQQHPGKAPKLMIYDVSNRPSGVSNRFSGSKSGNTASLTISGLQAEDEAEFHCSSYRSSGASPVVFGGGTKLTVL
notes: single-chain phage antibody: the scFv stood on phage in the ELISA
B2: SC06-077 (scFv)
scFv: QVQLVQSGAEVKKPGSSVKVSCKASGGTFSSYAISWVRQAPGQGLEWMGGIIPIFGTANYAQKFQGRVTITADESTSTAYMELSSLRSEDTAVYYCAREGGVGPAFDIWGQGTMVTVSSGTGGSGGTGSGTGGSTDIQMTQSPDSLAVSLGERATINCKSSQSVLHNSNNKNYLAWYQQKPGQPPKLLIYWASTRESGVPDRFSGSGSGTDFTLTISSLQAEDVAVYYCQQYYGSPYTFGQGTKLEIK
notes: as for B1
B3: SC06-087 (scFv)
scFv: EVQLVESGGGLVKPGGSLRLSCAASGFTFSSNSMNWVRQAPGKGLEWVSFISSSSTYIYYADSVKGRFTISRDNAKNSLYLQMNSLRAEDTAVYYCARESAAGISYDAFDIWGQGTMVTVSSGTGGSGGTGSGTGGSTQSALTQPASVSGSPGQSITISCTGTSSDVGGYKYVSWYQQHPGKAPKLMIYEVSNRPSGVSNRFSGSKSGSTASLTISGLQAEDEADYYCSSYTSSSTLGVFGTGTKVTVL
notes: as for B1
B4: SC06-198 (scFv)
scFv: QLQLQESGPGLVKPSETLSLTCAVSGYSITSGYYWGWVRQPPGKGLEWIGSIYHTGSTYYNPSLKSRVTISVDTSKNQFSLKLNSLTAADTAVYFCASQSPAFDFWGQGTMVTVSSGTGGSGGTGSGTGGSTQSVLTQPPSVSGAPGQRVTISCTGSSSNIGTGYDVHWYQQLPGTAPKLLIYGNNNRPSGVPDRFSGSKSGTSASLAITGLQAEDEADYYCATWDDSLNGWVFGGGTKLTVP
notes: as for B1
B5: SC06-191 (scFv)
scFv: EVQLVESGGGVVQPGRSLRLSCVASEFTFSNYGMHWVRQAPGKGLEWVAVIWYDGSNEDYADSVKGRFTISRDNSKNTVYLHMNSLRAEDTAVYFCTRGQYSSTWFLDYWGQGTLVTVSSGTGGSGGTGSGTGGSTDIQLTQSPSTLSASVGDRVTITCRASQSISSWLAWYQQKPGKAPKLLIYKASSLETGVPSRFSGSGSGTDFTLTISSLQPEDFATYYCQQANSFPLTFGGGTKVDIK
notes: as for B1
B6: SC06-092 (scFv)
scFv: EVQLVESGGGLVQPGRSLRLSCTGSGFTFGDYAMSWFRQAPGKGLEWVGFIRNKAYGGTAEYAASVKDRFIISRDDSKSIAYLQMNSLKTEDTAVYYCVRREYDTGWLDYWGQGTLVTVSSGTGGSGGTGSGTGGSTQSALTQPPSASGSPGQSVTISCTGTSSDVGGYNYVSWYQRHPGKAPKLMIYDVTDRPSGVSNRFSGSKSGNTASLTISGLQAEDEADYYCSSYTSSSTSAVFGGGTKLTVL
notes: as for B1
B7: SC06-415 (scFv)
scFv: EVQLVESGGGLVQPGRSLRLSCAASGFTFDDYAMHWVRQAPGKGLEWVSGISWNSGSIGYADSVKGRFTISRDNAKNSLYLQMNSLRAEDSAVYYCARGGQRFDFWGQGTLVTVSSGTGGSGGTGSGTGGSTQSALTQPPSASGSPGQSVTISCTGTSSDVGGYNYVSWYQQLPGKAPKLLIYDVNNRPSGVSNRFSGSKSGNTASLTISGLQAEDEAEYYCGSSVGSRLRIFGGGTKLTVL
notes: as for B1
B8: SC06-388 (scFv)
scFv: EVQLVETGAEVKKPGESLRISCKGSGYSFTSYWIAWVRQMPGKGLEWMGVIYPGDSDARYSPSFQGQVTMSVDKSISTAYLQWSSLKASDTAMYYCAKLRSKNTGLDYWGQGTLVTVSSGTGGSGGTGSGTGGSTQSALTQPPSASGSPGQSVTISCTGTSSDVGGYNFVSWYQQHPGKAPKLMIYEVSNRPSGVPDRFSGSKSGNTASLTVSGLQAEDEADYYCSSYAGNNNLAFGGGTQLTVL
notes: as for B1
B9: SC06-089 (scFv)
scFv: EVQLVETGGGLVQPGGSLRLSCAASGFTFSSYSMNWVRQAPGKGLEWVSFISSSSSTIYYADSVKGRFTIARDNAKNSLYLQMNSLRDEDTAVYYCARPVGTGISLFHAFDIWGQGTMVTVSSGTGGSGGTGSGTGGSTQSVLTQPPSVSVAPGQTARITCGGNNIGSKYVHWYQQKPGQAPVLVVYDDSDRPSGIPERFSGSNSGNTATLTISRVEAGDEADFYCQVWDGSSDPVVFGGGTKLTVL
notes: as for B1
B10: SC06-252 (scFv)
scFv: EVQLVETGGGLVQPGGSLRLSCAASGLTFSSYAMSWVRQAPGKGLEWVSALSGSTTFYADSVKGRFTISRDNAKNTLYLQMNSLRAEDTAVYYCARGNYYGMDVWGQGTTVTVSSGTGGSGGTGSGTGGSTSYVLTQPPSASGTPGQRVTISCSGSSSNIGKFYVYWYQQFPGAAPKLLIYSNNQRPSGVPDRFSGSKSGTSASLAISGLQSEDEADYYCAAWDGSLNGYVFGTGTKVTVL
notes: as for B1
B11: SC06-071 (scFv)
scFv: EVQLVESGGGVVQPGRSLRLSCAASGFTFSSYGMHWVRQAPGKGLEWVAMIWSDGSNKYYADSVKGRFTISRDNSKNTLYLQMNSLRVEDTAVYYCASNYGSGSYWGGFDYWGQGTLVTVSSGTGGSGGTGSGTGGSTQSALTQPASVSGSPGQSITISCTGTSSDVGGYNLVSWYQQHPGKAPKLMIYEGSKRPSGVSNRFFGSKSGDTASLTISGLQAEDEADYYCSSYTTSSTHVFGTGTKVTVL
notes: as for B1
B12: SC05-157 (scFv)
scFv: EVQLVESGAEVKKPGESLKISCKGSGYSFTNYWIGWVRQMPGKGLEWMGIVYPGDSDTRYSPSFQGQVTISADKSISTAYLQWSSLKASDTAVYYCARRMAVAGSDAFDIWGQGTMVTVSSGTGGSGGTGSGTGGSTQAVLTQPSSASGTPGQTVTISCSGSTSNIGSHNVNWYQHLPGTAPKLLIYINNKRPSGVPDRFSGSKSGSSASLAISGLQSEDEADYYCAAWDDSLRRPVFGGGTQLTVL
notes: as for B1
B13: SC06-409 (scFv)
scFv: EVQLVQSGAEVKKPGESLKISCKGSGYSFTNYWIGWVRQMPGKGLEWMGIIYPGDSDTRYSPSFQGQVTISADKSISTAYLQWSSLKASDTAMYYCARHTQNKNGMNTFDIWGQGTMVTVSSGTGGSGGTGSGTGGSTQSALTQPPSASGSPGQSVTISCTGTSSDIGGYNYVSWYQQHPGKAPKLMIYEVSNRPPGVSNRFSGSKSGNTASLTISGLQAEDEADYYCSSYSTTTTRVIFGGGTKLTVL
notes: as for B1
B14: SC05-159 (scFv)
scFv: QVQLVQSGAEVKKPGATVKISCKVSGYTFTDYYMHWVQQAPGKGLEWMGLVDPEDGETIYAEKFQGRVTITADTSTDTAYMELSSLRSDDTAVYYCARAEVMTTINNWYFDLWGRGTLVTVSSGTGGSGGTGSGTGGSTSYVLTQPPSASGTPGQRVTISCSGSSSNIGSNNVSWYQQLPGTAPKLLIYSNNQRPSGVPDRFSGSKSGTSASLAISGLQSEDEADYYCAAWDDSLNGWVFGGGTKLTVL
notes: as for B1
B15: SC06-241 (scFv)
scFv: EVQLVESGGGLVQPGRSLRLSCAASGFTFRSYAMYWVRQAPGKGLEWLALISHDASKMFYADSVKGRFTISRDNSKNTLSLQMNSLTIEDTAVYYCVRERTGYYGAYWGQGTLVTVSSGTGGSGGTGSGTGGSTDIQMTQSPSSLSASVGDRVTLTCRASQGIGTWLAWYQQKPGKAPKLLIYSASSLQSGVPSRFSGSGSGTDFTLSISNLQPEDFATYYCQQANSFPITFGQGTRLEIK
notes: as for B1
B16: SC06-242 (scFv)
scFv: EVQLVESGPGLVKPSETLSLTCTVSGGSISSYYWSWIRQPPGKGLEWIGYIYYTGTTNYNPSLNSRVTISADTSKNQFSLKLSSVTAADTAVYYCARGGQTAGVWGKGTTVTVSSGTGGSGGTGSGTGGSTQSVLTQPPSVSVAPGQTARITCGGYNIGRKSVHWYQQKPGLAPVLVVYDNSDRPSGIPARFSGSNSGNTATLTISGTQAMDEADYYCQAWDRGTAVFGTGTKVTVL
notes: as for B1
B17: SC06-246 (scFv)
scFv: EVQLVESGGGLIQPGGSLRLSCAASGFTVSSDFMTWVRQAPGRGLEWVSLIYSGGKTNYADSVKGRFTISRDNSRNTLYLQMNSLRAEDTAVYYCARSVCSTISCSKLDDWGQGTLVTVSSGTGGSGGTGSGTGGSTQAVLTQPSSVSVAPGQTARITCGGNNIGRKSVHWYQQKPGLAPVLVVNDNSDRPSGIPARFSGSNSGNTATLTISRVEAGDEADYYCHVWGSSRDHYVFGTGTKVTVL
notes: as for B1
B18: SC06-389 (scFv)
scFv: QVQLVQSGAEVKKPGESLKISCKGSGYSFSTYWIGWVRQMPGKGLEWMGIIYPGDSDTRYSPSFQGQVTISADKSISTAHLQWSSLKASDTAMYYCARPGPRGYNHGFDYWGQGTLVTVSSGTGGSGGTGSGTGGSTSSELTQDPAESVALGQTVKITCQGDSLRRYYASWYQQKPGQAPVLVIYGKNNRPSGIPDRFSGSRSGNTASLTITGAQAEDEAVYYCNSRDSSGNSVVFGGGTKLTVL
notes: as for B1
B19: SC06-079 (scFv)
scFv: EVQLVESGGGLVQPGGSLRLSCAASGFTFSSYAMSWVRQAPGKGLEWVSAISGTGGSAYYADSVKGRFTISRDNSKNTVYLQMNSLRAEDTAVYYCAKGHSSGTNWGQGTLVTVSSGTGGSGGTGSGTGGSTSYVLTQPPSASGTPGQRVTISCSGSSSNIGSNFVYWYQQLPGTAPKLLIYRNNQRPSGVPDRFSGSKSGTSASLAISGLRSEDEADYYCAAWDDSLSGVLFGGGTQLTVL
notes: as for B1
B20: SC06-078 (scFv)
scFv: EVQLVESGAEVKKPGSSVKVSCKASGGTFSSYAISWVRQAPGQGLEWMGGIIPIFGTANYAQKFQGKVTITADESTSTAYMELSSLRSEDTAVYYCARLSPRYYGMDVWGQGTTVTVSSGTGGSGGTGSGTGGSTQSALTQPRSVSGSPGQSVTISCTGTSSDVGGYNYVSWYQQHPGKAPKLMIYGGSERPSGVSNRFSGSKSGNTASLTISGVQAEDEADYYCSSYTSSGTLLFGGGTQLTVL
notes: as for B1

molecular target: T1, 송아지 혈청 알부민(BSA) (bovine (printed: 송아지 혈청 알부민), UniProt P02769 25-607); experiment: phage ELISA, 1% BSA coated, anti-M13-peroxidase, absorbance 492 nm
T1 construct: also called bovine serum albumin
T1 sequence (P02769 25-607 limits assumed): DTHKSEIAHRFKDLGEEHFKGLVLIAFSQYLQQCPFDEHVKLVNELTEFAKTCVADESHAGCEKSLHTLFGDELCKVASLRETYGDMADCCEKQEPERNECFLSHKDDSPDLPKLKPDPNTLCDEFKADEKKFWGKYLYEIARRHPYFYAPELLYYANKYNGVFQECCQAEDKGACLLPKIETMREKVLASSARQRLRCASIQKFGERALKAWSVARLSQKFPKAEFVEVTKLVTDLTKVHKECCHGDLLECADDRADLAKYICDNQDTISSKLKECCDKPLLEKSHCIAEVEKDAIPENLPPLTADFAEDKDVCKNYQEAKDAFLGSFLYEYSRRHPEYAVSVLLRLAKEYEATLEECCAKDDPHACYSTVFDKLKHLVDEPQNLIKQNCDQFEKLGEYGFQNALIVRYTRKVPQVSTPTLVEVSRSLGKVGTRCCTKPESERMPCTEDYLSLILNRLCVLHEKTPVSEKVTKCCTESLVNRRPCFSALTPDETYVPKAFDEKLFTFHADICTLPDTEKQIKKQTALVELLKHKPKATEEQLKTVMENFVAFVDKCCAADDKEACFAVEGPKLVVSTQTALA

Binder	binding result
B1	no binding
B2	no binding
B3	no binding
B4	no binding
B5	no binding
B6	no binding
B7	no binding
B8	no binding
B9	no binding
B10	no binding
B11	no binding
B12	no binding
B13	no binding
B14	no binding
B15	no binding
B16	no binding
B17	no binding
B18	no binding
B19	no binding
B20	no binding
